How the values were obtained:
[1] = test system: HeLa Kyoto; experiment: thermal stability score vs G1/S (z-score of summed log2 fold changes over temperatures); higher = more thermally stable than in G1/S
[2] = test system: HeLa Kyoto; experiment: solubility in G1/S (NP-40 vs SDS abundance) (log2 ratio); higher = more soluble; conditions: cell cycle stage: G1/S
[3] = test system: HeLa Kyoto; experiment: melting temperature (median over replicates), in situ; higher = more thermally stable
[4] = test system: HeLa Kyoto; experiment: solubility change mitosis vs G1/S (difference of NP-40 vs SDS log2 ratios) (log2 ratio difference); higher = more soluble in mitosis
[5] = cell cycle stage: early G1 (4.5 h after nocodazole release)
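Throughout, for melting temperature (median over replicates), in situ: HeLa Kyoto cells synchronized by double thymidine or nocodazole block, proteins quantified by TMT10plex mass spectrometry, three independent biological replicates.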
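Throughout, for solubility change mitosis vs G1/S (difference of NP-40 vs SDS log2 ratios): synchronized HeLa Kyoto cells (double thymidine block for G1/S, nocodazole release for mitosis), protein amounts in NP-40 versus SDS lysates quantified by mass spectrometry, three biological replicates.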
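Throughout, for solubility in G1/S (NP-40 vs SDS abundance): HeLa Kyoto cells arrested at G1/S by double thymidine block, proteins quantified by TMT10plex mass spectrometry in mild NP-40 versus SDS extracts, three biological replicates.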
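Throughout, for thermal stability score vs G1/S (z-score of summed log2 fold changes over temperatures): synchronized HeLa Kyoto cells, proteins quantified by TMT10plex mass spectrometry, three biological replicates, mitosis taken 0.5 h after nocodazole release, G1/S directly after double thymidine block.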

Sequence of STK24 (chain, as listed by the source): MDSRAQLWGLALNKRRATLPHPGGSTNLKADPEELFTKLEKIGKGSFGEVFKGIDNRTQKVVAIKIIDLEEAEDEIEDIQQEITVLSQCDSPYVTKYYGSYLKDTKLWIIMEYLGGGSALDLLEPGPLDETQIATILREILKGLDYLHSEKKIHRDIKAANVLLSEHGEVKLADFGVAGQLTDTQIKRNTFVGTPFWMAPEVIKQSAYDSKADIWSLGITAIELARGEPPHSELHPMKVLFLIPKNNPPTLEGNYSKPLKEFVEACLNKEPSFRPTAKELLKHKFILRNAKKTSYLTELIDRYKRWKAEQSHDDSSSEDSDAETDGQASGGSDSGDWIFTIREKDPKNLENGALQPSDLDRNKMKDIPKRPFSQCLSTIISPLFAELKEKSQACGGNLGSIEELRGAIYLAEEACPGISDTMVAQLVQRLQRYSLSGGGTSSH

Substance | thermal stability score [1, 5] | thermal stability score ([1]; cell cycle stage: mitosis) | solubility in G1/S (log2) [2] | melting temperature ([3]; cell cycle stage: G1/S) [°C] | melting temperature ([3]; cell cycle stage: mitosis) [°C] | solubility change mitosis (log2) [4]
MLRPAGLWRLCRRPWAARVPAENLGRREVTSGVSPRGSTSPRTLNIFDRDLKRKQKNWAARQPEPTKFDYLKEEVGSRIADRVYDIPRNFPLALDLGCGRGYIAQYLNKETIGKFFQADIAENALKNSSETEIPTVSVLADEEFLPFKENTFDLVVSSLSLHWVNDLPRALEQIHYILKPDGVFIGAMFGGDTLYELRCSLQLAETEREGGFSPHISPFTAVNDLGHLLGRAGFNTLTVDTDEIQVNYPGMFELMEDLQGMGESNCAWNRKALLHRDTMLAAAAVYREMYRNEDGSVPATYQIYYMIGWKYHESQARPAERGSATVSFGELGKINNLMPPGKKSQ [NDUFAF5] | 0.357 | 0.191 | 0.329 | 53.5 | 53.4 | -0.0552
MSKYKLIMLRHGEGAWNKENRFCSWVDQKLNSEGMEEARNCGKQLKALNFEFDLVFTSVLNRSIHTAWLILEELGQEWVPVESSWRLNERHYGALIGLNREQMALNHGEEQVRLWRRSYNVTPPPIEESHPYYQEIYNDRRYKVCDVPLDQLPRSESLKDVLERLLPYWNERIAPEVLRGKTILISAHGNSSRALLKHLEGISDEDIINITLPTGVPILLELDENLRAVGPHQFLGDQEAIQAAIKKVEDQGKVKQAKK [BPGM] | 1.51 | 0.348 | 0.328 | 53.1 | 55.1 | -0.0036
MGLTVSALFSRIFGKKQMRILMVGLDAAGKTTILYKLKLGEIVTTIPTIGFNVETVEYKNICFTVWDVGGQDKIRPLWRHYFQNTQGLIFVVDSNDRERVQESADELQKMLQEDELRDAVLLVFANKQDMPNAMPVSELTDKLGLQHLRSRTWYVQATCATQGTGLYDGLDWLSHELSKR [ARF5] | 1.02 | 1.14 | -0.196 | 55.4 | 55.9 | -0.212
STK24 | 4.29 | 2.12 | 0.479 | 51.7 | 52.3 | -0.0565
MSVGCACPGCSSKSFKLYSPKEPPNGNAFPPFHPGTMLDRDVGPTPMYPPTYLEPGIGRHTPYGNQTDYRIFELNKRLQNWTEECDNLWWDAFTTEFFEDDAMLTITFCLEDGPKRYTIGRTLIPRYFRSIFEGGATELYYVLKHPKEAFHSNFVSLDCDQGSMVTQHGKPMFTQVCVEGRLYLEFMFDDMMRIKTWHFSIRQHRELIPRSILAMHAQDPQMLDQLSKNITRCGLSNSTLNYLRLCVILEPMQELMSRHKTYSLSPRDCLKTCLFQKWQRMVAPPAEPTRQQPSKRRKRKMSGGSTMSSGGGNTNNSNSKKKSPASTFALSSQVPDVMVVGEPTLMGGEFGDEDERLITRLENTQFDAANGIDDEDSFNNSPALGANSPWNSKPPSSQESKSENPTSQASQ [LDB1] | -3.74 | -2.44 | -0.0659 | 54.2 | 55.8 | -0.0611
MGLLDLCEEVFGTADLYRVLGVRREASDGEVRRGYHKVSLQVHPDRVGEGDKEDATRRFQILGKVYSVLSDREQRAVYDEQGTVDEDSPVLTQDRDWEAYWRLLFKKISLEDIQAFEKTYKGSEEELADIKQAYLDFKGDMDQIMESVLCVQYTEEPRIRNIIQQAIDAGEVPSYNAFVKESKQKMNARKRRAQEEAKEAEMSRKELGLDEGVDSLKAAIQSRQKDRQKEMDNFLAQMEAKYCKSSKGGGKKSALKKEKK [DNAJC9] | -3.62 | -5.66 | 0.502 | 52 | 51.8 | 0.21
MATRVEEAARGRGGGAEEATEAGRGGRRRSPRQKFEIGTMEEAGICGLGVKADMLCNSQSNDILQHQGSNCGGTSNKHSLEEDEGSDFITENRNLVSPAYCTQESREEIPGGEARTDPPDGQQDSECNRNKEKTLGKEVLLLMQALNTLSTPEEKLAALCKKYADLLEESRSVQKQMKILQKKQAQIVKEKVHLQSEHSKAILARSKLESLCRELQRHNKTLKEENMQQAREEEERRKEATAHFQITLNEIQAQLEQHDIHNAKLRQENIELGEKLKKLIEQYALREEHIDKVFKHKELQQQLVDAKLQQTTQLIKEADEKHQREREFLLKEATESRHKYEQMKQQEVQLKQQLSLYMDKFEEFQTTMAKSNELFTTFRQEMEKMTKKIKKLEKETIIWRTKWENNNKALLQMAEEKTVRDKEYKALQIKLERLEKLCRALQTERNELNEKVEVLKEQVSIKAAIKAANRDLATPVMQPCTALDSHKELNTSSKRALGAHLEAEPKSQRSAVQKPPSTGSAPAIESVD [TXLNG] | -0.882 | -2.17 | 0.584 | 52.5 | 52.5 | 0.0514

Reference: the supplement of paper PMC5998384
